The chains are these.
B1: YU100-H06 (scFv, not shown: a dimerising Fc or GST)
scFv: QVQLVESGGGVVQPGRSLRLSCAASGFTFSSYGMHWVRQAPGKGLEWVAVISYDGSNKYYADSVKGRFTISRDNSKNTLYLQMNSLRAEDTAVYYCAKIGATDPLDYWGQGTLVTVSSGSASAPKLEEGEFSEARIQSALTQPRSVSGSPGQSVTISCTGTSSDVGGYNYVSWYQQHPGKAPKLMIYDVTKRPSGVPDRFSGSKSGNTASLTISGLQAEDEADYYCSSYAGSYTWVFGGGTKLTVL
B2: YU112-A07 (scFv, not shown: a dimerising Fc or GST)
scFv: QVQLVESGGGVVQPGRSLRLSCAASGFTFSSYGMHWVRQAPGKGLEWVAVISYDGSNKYYTDSVKGRFTISRDNSKNTLYLQMNSLRAEDTAVYYCAKIGATDPLDYWGQGTLVTVSSGSASAPKLEEGEFSEARVQSALTQPRSVSGSPGQSVTISCTGTISDVGGYNYVSWYQQHPGKAPKLMIYDVTKRPSGVPDRFSGSKSGNTASLTISGLQAEDEAGYYCSSYAGSYTWVFGGGTELTVL
B3: YU100-E12 (scFv)
scFv: QVQLVESGGGVVQPGRSLRLSCAASGFTFSSYGMHWVRQAPGKGLEWVAVISYDGSNKYYADSVKGRFTISRDNSKNTLYLQMNSLRAEDTAVYYCAKIGATDPLDYWGQGTLVTVSSGSASAPKLEEGEFSEARVQSALTQPASVSGSPGQSITISCTGTSSDVGGYNYVSWYQQHPGTAPKLMIYDVSNRPSGVSNRFSGSKSGNTASLTISGLQAEDEADYYCSSYTSSTTWVFGGGTKLTVL
B4: YU100-G09 (scFv)
scFv: EVQLVESGGGVVQPGRSLRLSCAASGFTFSSYGMHWVRQAPGKGLEWVAVISYDGSNKYYADSVKGRFTISRDNSKNTLYLQMNSLRAEDTAVYYCAKIGATDPLDYWGQGTLVTVSSGSASAPKLEEGEFSEARVQSALTQPRSVSGSPGQSVTISCTGTISDVGGYNYVSWYQQHPGKAPKLMIYDVTKRPSGVPDRFSGSKSGNTASLTISGLQAEDEAGYYCSSYAGSYTWVFGGGTKLTVL
B5: YU100-A11 (scFv)
scFv: EVQLQQSGGGVVQPGRSLRLSCAASGFTFSSYGMHWVRQAPGKGLEWVAVISYDGSNKYYADSVKGRFTISRDNSKNTLYLQMNSLRAEDTAVYYCAKIGATDPLDYWGQGTLVTVSSGSASAPKLEEGEFSEARVQSALTQPRSVSGSPGQSVTISCTGTSSDVGGYNYVSWYQQHPGKAPKLMIYDVSKRPSGVPDRFSGSKSGNTASLTISGLQAEDEADYYCCSYAGSYTWVFGGGTKLTVL
B6: YU100-B03 (scFv)
scFv: QVQLVQSGGGVVQPGRSLRLSCAASGFTFSSYGMHWVRQAPGKGLEWVAVISYDGSNKYYADSVKGRFTISRDNSKNTLYLQMNSLRAEDTAVYYCAKIGATDPLDYWGQGTLVTVSSGSASAPKLEEGEFSEARVQSVLTQPRSVSGSPGRSVTISCTGTSSDVGGYNYVSWYQQHPGKAPKLTLYDVVKRPSGVPDRYSGSKSGNTASLTISGLQAEDEADYYCCSYAGGYTWVFGGGTKVTVV
B7: YU100-H11 (scFv, not shown: a dimerising Fc or GST)
scFv: QVQLVQSGGGVVQPGRSLRLSCAASGFTFSSYGMHWVRQAPGKGLEWVAVISYDGSNKYYADSVKGRFTISRDNSKNTLYLQMNSLRAEDTAVYYCAKIGATDPLDYWGQGTLVTVSSGSASAPKLEEGEFSEARVQSALTQPASVSGSPGQSITISCTGTSSDVGGYNYVSWYQQHPGKAPKLMIYDVSNRPSGVSNRFSGSKSGNTASLTISGLQAEDEADYYCCSYAGSYTWVFGGGTKLTVL
B8: YU100-B06 (scFv)
scFv: QVQLVESGGGVVQPGRSLRLSCAASGFTFSSYGMHWVRQAPGKGLEWVAVISYDGSNKYYADSVKSRFTISRDNSKNTLYLQMNSLRAEDTAVYYCAKIGATDPLDYWGQGTLVTVSSGSASAPKLEEGEFSEARVQSALTQPASVSGSPGQSITISCTGTSSDVGGYNYVSWYQQHPGKAPKLMIYDVSKRPSGVPDRFSGSKSGNTASLTISGLQAEDEADYYCNSYAGSYTWVFGGGTKLTVL
B9: YU100-E07 (scFv)
scFv: QVQLQESGGGVVQPGRSLRLSCAASGFTFSSYGMHWVRQAPGKGLEWVAVISYDGSNRYYADSVKGRFAISRDNSKNTLYLQMNSLRAEDTAVYYCAKIGATDPLDYWGQGTLVTVSSGSASAPKLEEGEFSEARVQSALTQPRSVSGSPGQSVTISCTGTSSDVGGYDYVSWYQQHPGKAPELMIYDVTKRPSGVADRFSGSKSGNTASLTISGLQAEDEADYYCCSYAGRYTWVFGGGTKLTVL
B10: YU100-E10 (scFv)
scFv: QVQLVQSGGGVVQPGRSLRLSCAASGFTFSSYGMHWVRQAPGKGLEWVAVISYDGSNKYYADSVKGRFTISRDNSKNTLYLQMNSLRAEDTAVYYCAKIGATDPLDYWGQGTLVTVSSGSASAPKLEEGEFSEARVQSALTQPRSVSGSPGQSVTISCTGTSSDVGGYNYVSWYQQHPGKAPKLMIFDVSQRPSGVPDRFSASKSGNTASLTISGLQAEDEADYYCCSYAGSYTWVFGGGTKLTVL
B11: YU100-B01 (scFv)
scFv: QVQLVQSGGGVVQPGRSLRLSCAASGFTFSSYGMHWVRQAPGKGLEWVAVISYDGSNKYYADSVKGRFTISRDNSKNTLYLQMNSLRAEDTAVYYCAKIGATDPLDYWGQGTLVTVSSGSASAPKLEEGEFSEARVQSALTQPRSVSGSPGQSVTISCTGTNTDVGAYNYVSWYQQYPGKAPKLIIYDVSKRPSGVPDRFSGSKSGNTASLTISGLQAEDEADYYCCSYAGSYSWVFGGGTKLTVL
B12: YU100-H05 (scFv)
scFv: QVQLVESGGGVVQPGRSLRLSCAASGFTFSSYGMHWVRQAPGKGLEWVAVISYDGSNKYYADSVKGRFTISRDNSKNTLYLQMNSLRAEDTAVYYCAKIGATDPLDYWGQGTLVTVSSGSASAPKLEEGEFSEARVQAVLTQPRSVSGSPGQSITISCTGTGSNVGGYNYVSWYQQHPGQAPKLMIYDVSKRPSGVPDRFSGSKSGNTASLTISGLQAEDEADYYCCSYAGTYTWVFGGGTKLTVL
B13: YU100-F02 (scFv)
scFv: EVQLVESGGGVVQPGRSLRLSCAASGFTFSSYGMHWVRQAPGKGLEWVAVISYDGSNKYYADSVKGRFTISRDNSKNTLYLQMNSLRAEDTAVYYCAKIGATDPLDYWGQGTLVTVSSGSASAPKLEEGEFSEARVQSALTQPRSVSGSPGQSVTISCTGTSSDVGGYNYVSWYQQHPGKAPKLMIYDVTKRPSGVPDRFSGSKSGNTASLTISGLQADDEADYYCCSYAGSYTWIFGGGTKLTVL
B14: YU100-A12 (scFv)
scFv: QVQLVESGGGVVQPGRSLRLSCAASGFTFSSYGMHWVRQAPGKGLEWVAVISYDGSNKYYADSVKGRFTISRDNSKNTLYLQMNSLRAEDTAVYYCAKIGATDPLDYWGQGTLVTVSSGSASAPKLEEGEFSEARVLPVLTQPRSVSGSPGQSVTISCTGTSSDVGGYNYVSWYQQHPGKAPKLMIYDVSKRPSGVPDRFSGSKSGDTASLTISGLQAEDEADYYCSSYAGSYTWVFGGGTKLTVL
B15: YU100-B07 (scFv)
scFv: QVQLVESGGGVVQPGRSLRLSCAASGFTFSSYGMHWVRQAPGKGLEWVAVISYDGSNKYYADSVKGRFTISRDNSKNTLYLQMNSLRAEDTAVYYCAKIGATDPLDYWGQGTLVTVSSGSASAPKLEEGEFSEARVQSALTQPRSVSGSPGQSVTMSCTGTSRDVGGYNYVSWYQHHPGKAPKLMIYDVSKRPSGVPDRFSGSKSGNTASLTISELQAEDEADYYCCSYAGSYTWVFGGGTKLTVL
B16: YU100-G01 (scFv)
scFv: QVQLVQSGGGVVQPGRSLRLSCAASGFTFSSYGMHWVRQAPGKGLEWVAVISYDGSNKYYADSVKGRFTISRDNSKNTLYLQMNSLRAEDTAVYYCAKIGATDPLDYWGQGTLVTVSSGSASAPKLEEGEFSEARVQSALTQPRSVSASPGQSVTISCTGTSSDVGAYNYVSWYQQHPGKAPKLMLYDVNKRPSGVPDRFSGSKSGNTASLTISRLQAEDEADYYCCSYAGSYTWVFGGGTKLTVL
Further: test concentration or dose not given here.

This test addresses T1, human IL-11 (human, UniProt P20809 22-199).
T1 sequence (looked up): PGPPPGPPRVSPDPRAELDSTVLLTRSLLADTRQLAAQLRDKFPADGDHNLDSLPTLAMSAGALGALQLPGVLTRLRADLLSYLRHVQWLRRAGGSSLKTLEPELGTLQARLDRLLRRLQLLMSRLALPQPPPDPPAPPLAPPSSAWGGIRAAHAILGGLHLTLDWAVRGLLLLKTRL
Put plainly: cell-based or functional assay.
Take B1: the “MMP2 production (ng/ml), TGFB1-stimulated human atrial fibroblasts, Experiment 1 (NEG 42.7, POS 70.2)” value (from here on “MMP2 production (ng/ml) … (NEG 42.7, POS 70.2)”) is 52.3 ng/mL and the “MMP2 production (ng/ml), TGFB1-stimulated human atrial fibroblasts, Experiment 2 (NEG 36.2, POS 62.3)” value (“MMP2 production (ng/ml) … (NEG 36.2, POS 62.3)” for short) amounted to 43.9 ng/mL.

B2: the “MMP2 production (ng/ml) … (NEG 42.7, POS 70.2)” value was found to be 50.7 ng/mL and the “MMP2 production (ng/ml) … (NEG 36.2, POS 62.3)” value was determined as 45 ng/mL.

With B3, the “MMP2 production (ng/ml) … (NEG 42.7, POS 70.2)” value worked out at 56 ng/mL and the “MMP2 production (ng/ml) … (NEG 36.2, POS 62.3)” value is 47.9 ng/mL.

With B4, the “MMP2 production (ng/ml) … (NEG 42.7, POS 70.2)” value was 59.9 ng/mL and the “MMP2 production (ng/ml) … (NEG 36.2, POS 62.3)” value came to 47.5 ng/mL.

In the case of B5, the “MMP2 production (ng/ml) … (NEG 42.7, POS 70.2)” value is 51.6 ng/mL and the “MMP2 production (ng/ml) … (NEG 36.2, POS 62.3)” value is 45.7 ng/mL.

On to B6, for which the “MMP2 production (ng/ml) … (NEG 42.7, POS 70.2)” value was 47.3 ng/mL and the “MMP2 production (ng/ml) … (NEG 36.2, POS 62.3)” value was 46.8 ng/mL.

As for B7, the “MMP2 production (ng/ml) … (NEG 42.7, POS 70.2)” value was 53.7 ng/mL and the “MMP2 production (ng/ml) … (NEG 36.2, POS 62.3)” value worked out at 45.5 ng/mL.

Consider B8, for which the “MMP2 production (ng/ml) … (NEG 42.7, POS 70.2)” value amounted to 47.6 ng/mL and the “MMP2 production (ng/ml) … (NEG 36.2, POS 62.3)” value is 49.6 ng/mL.

As to B9, the “MMP2 production (ng/ml) … (NEG 42.7, POS 70.2)” value stood at 52.1 ng/mL and the “MMP2 production (ng/ml) … (NEG 36.2, POS 62.3)” value worked out at 46.5 ng/mL.

Take B10: the “MMP2 production (ng/ml) … (NEG 42.7, POS 70.2)” value was 56.1 ng/mL and the “MMP2 production (ng/ml) … (NEG 36.2, POS 62.3)” value came out at 47 ng/mL.

On to B11, for which the “MMP2 production (ng/ml) … (NEG 42.7, POS 70.2)” value was 52.5 ng/mL and the “MMP2 production (ng/ml) … (NEG 36.2, POS 62.3)” value was 40 ng/mL.

As to B12, the “MMP2 production (ng/ml) … (NEG 42.7, POS 70.2)” value turned out to be 57.1 ng/mL and the “MMP2 production (ng/ml) … (NEG 36.2, POS 62.3)” value came out at 47.8 ng/mL.

In the case of B13, the “MMP2 production (ng/ml) … (NEG 42.7, POS 70.2)” value stood at 51.2 ng/mL and the “MMP2 production (ng/ml) … (NEG 36.2, POS 62.3)” value was determined as 43.5 ng/mL.

Turning to B14, the “MMP2 production (ng/ml) … (NEG 42.7, POS 70.2)” value was 59.5 ng/mL and the “MMP2 production (ng/ml) … (NEG 36.2, POS 62.3)” value amounted to 50.4 ng/mL.

B15: the “MMP2 production (ng/ml) … (NEG 42.7, POS 70.2)” value was found to be 55.9 ng/mL and the “MMP2 production (ng/ml) … (NEG 36.2, POS 62.3)” value was 47.4 ng/mL.

For the molecule B16, the “MMP2 production (ng/ml) … (NEG 42.7, POS 70.2)” value was found to be 56.6 ng/mL and the “MMP2 production (ng/ml) … (NEG 36.2, POS 62.3)” value stood at 49.7 ng/mL.

For the origin of these results see patent publication US20180186871A1 (SINGAPORE HEALTH SERVICES PTE, published 2018).
